The values below come from publication PMC4634974, “Carbon Catabolite Repression and the Related Genes of ccpA, ptsH and hprK in Thermoanaerobacterium aotearoense” (PLoS ONE, 2015).

Assay [1] has as its target catabolite control protein A (CcpA) from T. aotearoense SCUT27 with a C-terminal His-tag (Thermoanaerobacterium aotearoense SCUT27) (UniProt T1SCF9). The assay can be described thus: SPR; SPRi (Plexera V3), 25°C; CcpA printed as spots on gold-coated sensor slides by amine coupling; HPr, HPrSerP or HPrM flowed as analytes at 2 μL/s, association and dissociation 300 s each; PBST pH 7.2 running buffer; BSA as reference; Langmuir binding model. On the technique in general: Surface plasmon resonance follows binding to a sensor surface in real time, without labels.

In assay [2] the target is T1, HPrK/P (HPr kinase/phosphatase) (Thermoanaerobacterium aotearoense, UniProt A0A0S1LJ76).
T1 construct: protein substrate recombinant HPr (KR818834) of the same strain
T1 sequence (A0A0S1LJ76 1-304): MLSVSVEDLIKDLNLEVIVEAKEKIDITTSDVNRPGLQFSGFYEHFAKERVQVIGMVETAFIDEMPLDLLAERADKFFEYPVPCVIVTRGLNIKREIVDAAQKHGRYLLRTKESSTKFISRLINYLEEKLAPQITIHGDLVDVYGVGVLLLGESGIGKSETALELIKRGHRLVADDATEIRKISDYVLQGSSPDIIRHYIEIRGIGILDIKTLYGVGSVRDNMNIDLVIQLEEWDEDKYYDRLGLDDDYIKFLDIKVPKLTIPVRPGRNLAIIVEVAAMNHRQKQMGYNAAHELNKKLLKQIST
Description: HPr phosphorylation, Phos-tag SDS-PAGE. The conditions noted are these: 5 mM ATP, 50 uM HPr, 5 mM MgCl2, 10 mM NaCl, 100 mM Tris-Cl pH 7.0, 37 C, 10 min. It counts as biochemical.

Assay [3] has as its target T2, catabolite control protein A (CcpA) from T. aotearoense SCUT27 with a C-terminal His-tag (Thermoanaerobacterium aotearoense SCUT27, UniProt T1SCF9 1-336).
T2 construct: CcpA, catabolite control protein A, Thermoanaerobacterium aotearoense SCUT27; ORF of 336 amino acids (ccpA gene, 1011 bp, GenBank KC899078); full-length gene cloned into pET30a (NdeI/XhoI); The genomic primer begins with GTG, the expression primer Tc-F with ATG; Cloning through XhoI of pET30a probably adds LE before the His-tag (surmised); also called pET-CcpA product; source: E. coli BL21(DE3), …
The assay can be described thus: SPR; SPRi (Plexera V3), 25°C; CcpA printed as spots on gold-coated sensor slides by amine coupling; HPr, HPrSerP or HPrM flowed as analytes at 2 μL/s, association and dissociation 300 s each; PBST pH 7.2 running buffer; BSA as reference; Langmuir binding model. Particulars: both partners purified.

Chain of catabolite control protein A (CcpA) from T. aotearoense SCUT27 with a C-terminal His-tag (Thermoanaerobacterium aotearoense SCUT27) (T1SCF9 entry or part of it): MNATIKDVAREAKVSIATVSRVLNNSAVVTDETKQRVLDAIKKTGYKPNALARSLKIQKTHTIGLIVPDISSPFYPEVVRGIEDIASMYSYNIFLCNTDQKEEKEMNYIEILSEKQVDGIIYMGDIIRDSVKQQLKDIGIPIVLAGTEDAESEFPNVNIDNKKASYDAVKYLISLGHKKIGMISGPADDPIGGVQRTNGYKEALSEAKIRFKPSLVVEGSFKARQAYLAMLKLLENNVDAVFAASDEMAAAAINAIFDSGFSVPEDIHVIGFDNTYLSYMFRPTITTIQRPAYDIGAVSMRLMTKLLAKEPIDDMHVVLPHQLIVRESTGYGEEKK
T2 sequence (T1SCF9 entry or part of it): as above

As a reminder, the Kd is the concentration at which binding is half-saturated. Read a high Kd as weaker binding. A word on the koff: it is the first-order rate constant of dissociation. A high value points to a short-lived complex. A word on the kon: it is the rate constant with which the complex forms. In assay [1], “Histidine-containing Protein (HPr) from T. aotearoense SCUT27 with a C-terminal His-tag, not phosphorylated (natural protein)” yielded a Kd of 2290 nM, a koff of 0.000922 s⁻¹ and a kon of 403 M⁻¹ s⁻¹.

In the case of `Nc1ncnc2c1ncn2[C@@H]1O[C@H](COP(=O)(O)OP(=O)(O)OP(=O)(O)O)[C@@H](O)[C@H]1O` [ATP], the “HPr phosphorylation, Phos-tag SDS-PAGE” value in assay [2] is on record as “HPrK/P lost its kinase activity when there was no ATP in the reaction mixture”.

B1: HPrM, HPr from T. aotearoense SCUT27 with Ser46 mutated to Ala, C-terminal His-tag (natural protein)
chain: MTEKTVEIKNKTGLHARPAALFVQAASKFSSQIWVEKENKKVNAKAIMGIMSLGVAQGNTVKLIADGSDEQEAIKTLVDLIDSKFGEE
As to B1, in assay [3], the Kd stood at 6010 nM, the koff was 0.000576 s⁻¹ and the kon amounted to 95.8 M⁻¹ s⁻¹.

B2: seryl-phosphorylated HPr (HPrSerP) from T. aotearoense SCUT27 with a C-terminal His-tag (natural protein, Thermoanaerobacterium aotearoense SCUT27, UniProt A0A0S1LJA4 1-88, looked up)
chain: MTEKTVEIKNKTGLHARPAALFVQAASKFSSQIWVEKENKKVNAKSIMGIMSLGVAQGNTVKLIADGSDEQEAIKTLVDLIDSKFGEE
modifications: phosphoserine at 46
notes: HPr, histidine-containing protein, Thermoanaerobacterium aotearoense SCUT27; ORF of 88 amino acids (ptsH gene, GenBank KR818834); full-length gene cloned into pET30a (NdeI/HindIII); phosphorylated at Ser46; Same chain as m3, phosphorylated at Ser46 by recombinant HPrK/P; also called HPrK/P treated HPr; source: E. coli BL21(DE3), purified (HiTrap Chelating HP, desalting column), phosphorylated in …
For B2, in assay [3], binding was put at a Kd of 2.22 nM, the koff came out at 7.78e-07 s⁻¹ and the kon stood at 350 M⁻¹ s⁻¹.
